Data on ten variants can be found in article PMC9352346 (2022).

B1: GFP-Smad4-WT [not stated] / GST-Arl15-AL [human] (parent complex)
chain 1: MDNMSITNTPTSNDACLSIVHSLMCHRQGGESETFAKRAIESLVKKLKEKKDELDSLITAITTNGAHPSKCVTIQRTLDGRLQVAGRKGFPHVIYARLWRWPDLHKNELKHVKYCQYAFDLKCDSVCVNPYHYERVVSPGIDLSGLTLQSNAPSSMMVKDEYVHDFEGQPSLSTEGHSIQTIQHPPSNRASTETYSTPALLAPSESNATSTANFPNIPVASTSQPASILGGSHSEGLLQIASGPQPGQQQNGFTGQPATYHHNSTTTWTGSRTAPYTPNLPHHQNGHLQHHPPMPPHPGHYWPVHNELAFQPPISNHPAPEYWCSIAYFEMDVQVGETFKVPSSCPIVTVDGYVDPSGGDRFCLGQLSNVHRTEAIERARLHIGKGVQLECKGEGDVWVRCLSDHAVFVQSYYLDREAGRAPGDAVHKIYPSAYIKVFDLRQCHRQMQQQAATAQAAAAAQAAAVAGNIPGPGSVGGIAPAISLSAAAGIGVDDLRRLCILRMSFVKGWGPDYPRQSIKETPCWIEIHLHRALQLLDEVLHTMPIADPQPLD
chain 2: MSDLRITEAFLYMDYLCFRALCCKGPPPARPEYDLVCIGLTGSGKTSLLSKLCSESPDNVVSTTGFSIKAVPFQNAILNVKELGGLDNIRKYWSRYYQGSQGVIFVLDSASSEDDLEAARNELHSALQHPQLCTLPFLILANHQDKPAARSVQEIKKYFELEPLARGKRWILQPCSLDDMDALKDSFSQLINLLEEKDHEAVRM
B2: Arl15-AL-Myc [human] / GST-Smad4 [not stated] (parent complex)
chain 1: B1 chain 2
chain 2: B1 chain 1

The first assay covers variants of B1. As to the kind of experiment: GST pull-down, immunoblot band quantification; HEK293T cell lysates; bead-immobilized GST-Arl15-AL; n=3; parent: 1; read off a plot. In general terms: Immunoblotting shows a protein as a band on a membrane.
On to chain 1 R497H, for which the ratio to parent is approximately 1.

Regarding chain 1 A532D, the ratio to parent was approximately 0.2.

As to chain 1 L495P, the ratio to parent was approximately 1.3.

Turning to chain 1 H541Y, the ratio to parent was approximately 0.37.

In the case of chain 1 D493H, the ratio to parent is approximately 0.9.

Turning to chain 1 M447K, the ratio to parent was approximately 1.1.

Turning to chain 1 R496H, the ratio to parent is approximately 1.1.

For the variant chain 1 E538K, the ratio to parent is approximately 0.29.

Variants of B2 are the subject of a further assay. As to the kind of experiment: GST pull-down, immunoblot band quantification; HeLa cell lysates; bead-immobilized GST-Smad4; parent: 100.
Consider chain 1 D58N, for which the percent of parent worked out at 93.

Take chain 1 R150H: the percent of parent is 87.
